Measured values from patent US8822187B1, “Polypeptides, nucleic acid molecules, and methods for synthesis of triterpenes” (University of Kentucky Research Foundation, priority 2011, dated 2014).

B1: Botryococcus braunii race B squalene synthase-like 1 (SSL-1), wild type, hexa-histidine tagged, SEQ ID NO: 2 (Botryococcus braunii) (protein)
chain: MTMHQDHGVMKDLVKHPNEFPYLLQLAATTYGSPAAPIPKEPDRAFCYNTLHTVSKGFPRFVMRLPQELQDPICIFYLLLRALDTVEDDMNLKSETKISLLRVFHEHCSDRNWSMKSDYGIYADLMERFPLVVSVLEKLPPATQQTFRENVKYMGNGMADFIDKQILTVDEYDLYCHYVAGSCGIAVTKVIVQFNLATPEADSYDFSNSLGLLLQKANIITDYNEDINEEPRPRMFWPQEIWGKYAEKLADFNEPENIDTAVKCLNHMVTDAMRHIEPSLKGMVYFTDKTVFRALALLLVTAFGHLSTLYNNPNVFKEKVRQRKGRIARLVMSSRNVPGLFRTCLKLANNFESRCKQETANDPTVAMTIKRLQSIQATCRDGLAKYDTPSGLKSFCAAPTPTK
B2: SSL-2: Botryococcus braunii race B squalene synthase-like 2 enzyme; bacterial form is truncated SSL-2-tr2 (protein)
chain: MVKLVEVLQHPDEIVPILQMLHKTYRAKRSYKDPGLAFCYGMLQRVSRSFSVVIQQLPDELRHPICVFYLILRALDTVEDDMNLPNEVKIPLLRTFHEHLFDRSWKLKCGYGPYVDLMENYPLVTDVFLTLSPGAQEVIRDSTRRMGNGMADFIGKDEVHSVAEYDLYCHYVAGLVGSAVAKIFVDSGLEKENLVAEVDLANNMGQFLQKTNVIRDYLEDINEEPAPRMFWPREIWGKYAQELADFKDPANEKAAVQCLNHMVTDALRHCEIGLNVIPLLQNIGILRSCLIPEVMGLRTLTLCYNNPQVFRGVVKMRRGETAKLFMSIYDKRSFYQTYLRLANELEAKCKGEASGDPMVATTLKHVHGIQKSCKAALSSKELLAKSGSALTDDPAIRLLLLVGVVAYFAYAFNLGDVRGEHGVRALGSILDLSQKGLAVASVALLLLVLLARSRLPLLTSASSKQ

How the values were obtained:
[1] = Primary enzyme assay with 3H-FPP, PSPP content by acid phosphatase assay; assay type: biochemical; details: 20 μg enzyme, 40 μM 3H-FPP, 37° C., 1 h
Description: Two primary enzyme assays (500 μl) were set up with 20 μg of purified SSL-1 or Nicotiana benthamiana squalene synthase (TSS) plus 40 μM ^3H-FPP. The assays were incubated at 37° C. for 1 h, then extracted 3× with 500 μl water saturated 1-butanol, pooled, and evaporated under a stream of nitrogen gas. The white residue was resuspended in 50 μl of 25 mM NH4HCO3 in 70% ethanol (v/v). An aliquot of the resuspension was analyzed by the acid phosphatase assay (described in supplemental FIG. 4) and shown to consist of 45% and 40% PSPP for the SSL-1 and TSS primary incubations, respectively. […] It was calculated that 1 μl of each resuspension contained ˜150 pmoles of 3H-PSPP. […] For comparison, enzyme assays were also set up containing 3 μM ^3H-FPP, 2 mM NADPH and either 1 μg each of SSL-1 plus SSL-3, or SSL-1 plus SSL-2. Additional control assays contained 5 μM ^3H-FPP, 2 mM NADPH, and either 1 μg of SSL-3 or SSL-2. The reactions were incubated at 37° C. for 15 min, stopped by addition of 50 μl 0.5 M EDTA, and extracted with 100 μl n-hexane. Aliquots of the hexane extracts, along with standards of squalene and botryococcene, were separated by silica TLC using n-hexane as the developing solvent. Standards were visualized with iodine vapors and the corresponding zones were analyzed by scintillation spectroscopy. […]

[2] = NADPH oxidation versus squalene and bisfarnesyl ether recovery; assay type: biochemical
Description: With reference to Table 2, Assays were performed as described above in the Methods except that an alternative reaction buffer (50 mM Tris pH 8.0, 250 mM NaCl, 20 mM MgCl2) was used to minimize spontaneous NADPH oxidation and prevent protein precipitation at high concentrations. […] An extinction coefficient of 6220/M/cm was used to calculate the amount of NADPH oxidized. No NADPH oxidation could be measured in complete reaction buffer without protein over a 1 h incubation. […] This background NADPH oxidation was subtracted from the experimental determined rates. The experimental enzyme assays contained either purified TSS (0.75 or 1.5 μg) or SSL-2 (8 or 16 μg) and 40 μM ^3H-FPP. Absorbance at […] was recorded every 2.5 min. for 15 minutes, after which the reaction was stopped by adding an equal volume of 0.5 M EDTA. The reaction mixture was collected, extracted with 200 μl of hexane and aliquots were separated by silica TLC along with standards of squalene and bisfarnesyl ether using hexane:MTBE (25:1) as the developing solvent. The standards were subsequently visualized with iodine vapor, and corresponding zones analyzed by scintillation spectroscopy. Data represents mean±S.E.M of duplicate samples.

[3] = 100 μM NADPH, 40 μM 3H-FPP, 15 minutes, 23° C.

| Molecule | PSPP share of reaction product of primary incubation [1] | Bisfarnesyl ether formed [2] | NADPH oxidation not associated with squalene biosynthesis [2] | NADPH oxidized [2] | squalene biosynthesis [2] | bisfarnesyl ether formed per mole equivalent of NADPH oxidation ([2]; 21 pmoles versus 2.4 pmoles) | pmoles bisfarnesyl ether recovered per μg protein [2, 3] | pmoles squalene recovered per μg protein [2, 3] | pmoles NADPH oxidized per μg protein ([2]; 100 μM NADPH, 40 μM FPP, 15 minutes, 23° C., background subtracted) | NADPH oxidation rate in reaction buffer without FPP (background) ([2]; without FPP) |
| --- | --- | --- | --- | --- | --- | --- | --- | --- | --- | --- |
| B1 | 45% |  |  |  |  |  |  |  |  |  |
| B2 |  | greater than 21 pmoles | 2.4 pmol | 4.6 pmol | 2.2 pmol | about 10 times | 21.7 ± 1.8 pmoles per μg protein | 2.2 ± 0.4 pmoles per μg protein | 4.6 ± 2.6 pmoles per μg protein | 22 pmoles/μg protein/h |
